Measurements taken from the supplement of paper PMC9170038.

Test system: MS2 coat protein
Test: apparent KD of MS2 coat protein; designed switch direction (-1 OFF switch, 1 ON switch): 1; higher = weaker reporter binding
Outline: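 The reported apparent KD is a per-design median over clusters, from curve fits of normalised cluster fluorescence. Protein titrations used SNAP-549-labelled MS2 coat protein, doubled from 0.7 or 1.5 nM to 3 µM, in Tris-HCl pH 7.5 buffer with KCl, MgCl2, BSA, DTT, tRNA and Tween-20, with no input, 200 uM small-molecule ligand, or an oligonucleotide input. The RNA switches were transcribed on Illumina chips by stalled E. coli RNA polymerase.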

[1] = input ligand: microRNA oligo, concentration not stated
[2] = Eterna round: R95, input ligand: FMN 200 uM
[3] = Eterna round: R95, input ligand: microRNA oligo, concentration not stated
[4] = Eterna round: R95, input ligand: none

Row | Sequence | apparent KD of MS2 coat protein (input ligand: FMN 200 uM) [nM] | apparent KD of MS2 coat protein [1] [nM] | apparent KD of MS2 coat protein (input ligand: none) [nM] | apparent KD of MS2 coat protein [2] [nM] | apparent KD of MS2 coat protein [3] [nM] | apparent KD of MS2 coat protein [4] [nM]
1 | ACAUGAAAUUCAGGAUAUUUUGUACCUACAUGUGACAUGAGGAUCACCCAUGUGGUAAGUAUAAGAGAGAAGGGAAAGAUAUGU [Equivalence 5 - Jieux - Same State NG 2] (Eterna round: R96, puzzle: Same State NG 2) | 29.1 | 29.9 | 38.5 | – | – | –
2 | ACAUGAGAGAUAGGAUAUCUUGUACCUACAUGUGACAUGAGGAUCACCCAUGUGGUAAGUAUGAGGGAGAAGGAUCAGAUAUGU [Equivalence 42 - Jieux - Same State NG 2] (Eterna round: R96, puzzle: Same State NG 2) | 29.6 | 26.4 | 45.2 | – | – | –
3 | ACAUGAGAGUGAGGAUAUAUUGUACCUACAUGUGACAUGAGGAUCACCCAUGUGGUAAGUAUGACAUAGAAGGCACAGAUAUGU [Equivalance 80 - Jieux - Same State NG 2] (Eterna round: R96, puzzle: Same State NG 2) | 35.6 | 45.2 | 70.9 | – | – | –
4 | ACAUGAGAGUGAGGAUAUCAUGUACCUACAUGUGACAUGAGGAUCACCCAUGUGGUAAGUAUGACUGAGAAGGCACAGAUAUGU [Equivalance 90 - Jieux - Same State NG 2] (Eterna round: R96, puzzle: Same State NG 2) | 70.3 | 267 | 889 | – | – | –
5 | ACAUGAGGGUGAGGAUAUUGGAACUCACCUGACAUGAGGAUCACCCAUGUUCAAUGAGGAUCACCCAAGAAGGCACGUUGUGGA [Same State NG2 S3] (Eterna round: R96, puzzle: Same State NG 2) | 29.2 | 24 | 36.2 | – | – | –
6 | ACCCAAAAUACAUGGGAACAAGCUUUUUAACAUGAGGAUCACCCAUGUACUCGUCUUAUAAGCAGUCGAAAGACUGC [hsa-mir-208a sensor: 113] (Eterna round: R96, puzzle: Sensor for hsa-mir-208a) | 563 | 14.6 | 518 | – | – | –
7 | ACCCGCGGGCCACAUGAGGAUCACCCAUGUGACCGGUGAUCCAAGGAUAUACGUGUCAUUGACGCGUAGAAGGUGGCCAAAACA [Ersooned] (Eterna round: R96, puzzle: Same State NG 3) | 49.2 | 22.7 | 28.8 | – | – | –
8 | ACGCGGGUAUCACAGGAUAUACUCAUAACUACAUGAGGAUCACCCAUGUGGCGGAAUUCCGGUGCGUAGAAGGGUGAUGGACCGC [Artece] (puzzle: Same State 2) | – | – | – | 19.3 | 28.5 | 26.9
9 | ACGUCGAGAUCACAGGAUAUACUCACAUCUACAUGAGGAUCACCCAUGUAGCGGUAUUCCGGUGCGUAGAAGGGUGAUCGACGAC [Same State 2 - Mod of Artece v.5] (puzzle: Same State 2) | – | – | – | 14.6 | 9.7 | 11.9
10 | ACGUGGCUGCCGCAGGAUAUACCCUGUUCCACAUGAGGAUCACCCAUGUUUACGAACUAUGAGAGGUAGAAGGGUGGAUGUCAUU [Beenvean] (Eterna round: R96, puzzle: Same State 2) | 12.2 | 18.9 | 30.7 | – | – | –
11 | ACGUGGCUGCCGCAGGAUAUACCCUGUUCCACAUGAGGAUCACCCAUGUUUACGAACUAUGAGAGGUAGAAGGGUGGAUGUCAUU [Beenvean] (puzzle: Same State 2) | – | – | – | – | 23.7 | –
12 | ACUAUUUAUGCAGGAUAUGAUUAACAUGAGGAUCACCCAUGUGGUGUUGUGAGUAAGGAGAGUGAUCAGAAGGGCAUUUUUUUU [JMF's solution 75] (Eterna round: R96, puzzle: Same State NG 2) | 518 | 297 | 359 | – | – | –
13 | ACUGCAAUUAACGCCUACAUGAGGAUCACCCAUGUAUGUAGGCAGGAUAUCGUUUGCUUUGCAAACGAGAAGGGCUGUAGUAGC [salish99_SSNG3_R04_003] (Eterna round: R96, puzzle: Same State NG 3) | 59.1 | 59.4 | 64.1 | – | – | –
14 | AGAGAACAUGAGGAUCACCCAUGUGGGAUGGGCAUAGGAUAUAGAGGAGAGAGGGAGGAACUAGAAGGAUGAUGGA [JR_SS1_Sub079] (puzzle: Same State 1) | – | – | – | 43 | 103 | 50.3
15 | AGAUCAUGACGAGGAUAUGGAACAUGAGGAUCACCCAUGUAUGUUCCAUAACGCGAACGACGAAUCCAGAAGGCGUCGUGGUCA [JL SSNG2 1.09] (Eterna round: R96, puzzle: Same State NG 2) | 7.15 | 18.6 | 28.3 | – | – | –
16 | AGAUGUUAAUUAGGAUAUGGUCACAUGAGGAUCACCCAUGUAACGAUGAUACGAUGUGGUCAAGACUAGAAGGGAUCGCUAACA [SameState NG2 #72] (Eterna round: R96, puzzle: Same State NG 2) | 204 | 86.4 | 155 | – | – | –
17 | AGCCUGAGUCGAGGAUAUUAUGGAUCCUUUAAUACAUGAGGAUCACCCAUGUAAUUAAUUAUACAUGAGAAGGCGACUCAGGCA [SSNG2/11-A1] (Eterna round: R96, puzzle: Same State NG 2) | 10.9 | 30.4 | 129 | – | – | –
18 | AGCGCGGUCUCGCAGGAUAUCCACAUUCCUACAUGAGGAUCACCCAUGUCGCUGCAGGAUAUUAGGGAGAAGGGUGAUGCCGCGG [Quesed] (puzzle: Same State 2) | – | – | – | 22.7 | 42.7 | 48.4
19 | AGCUAUUAAUCAGGAUAUAGUGACAUGAGGAUCACCCAUGUAUUAAUGAUGAAAUGUGGUCGCCGCUAGAAGGGAUUACUAACA [SameState NG2 #44] (Eterna round: R96, puzzle: Same State NG 2) | 67.1 | 22 | 30.1 | – | – | –
20 | AGCUAUUAAUCAGGAUAUAGUGACAUGAGGAUCACCCAUGUAUUGAUGAUUAAAUGUGGUCACCGCUAGAAGGGAUUACUAACA [SameState NG2 #47] (Eterna round: R96, puzzle: Same State NG 2) | 25.6 | 23.3 | 30.1 | – | – | –
21 | AGCUAUUAAUCAGGAUAUGGUCACAUGAGGAUCACCCAUGUAUAGAUGAUUGAAUGUGGUCUACACUAGAAGGGAUUGCUAACA [SameState NG2 #58] (Eterna round: R96, puzzle: Same State NG 2) | 167 | 96.1 | 150 | – | – | –
22 | AGCUAUUAAUCAGGAUAUGGUCACAUGAGGAUCACCCAUGUGUAGAUGAUAAAAUGUGGUCAACACUAGAAGGGAUUGCUAACA [SameState NG2 #61] (Eterna round: R96, puzzle: Same State NG 2) | 26.8 | 25.1 | 37 | – | – | –
23 | AGCUAUUACGAAGGAUAUAGUAACAUGAGGAUCACCCAUGUUUACAUGAUUAAUUGUGAUCACGUCUAGAAGGUUGUACUAACA [SameState NG2 #34] (Eterna round: R96, puzzle: Same State NG 2) | 33.1 | 30.2 | 37.1 | – | – | –
24 | AGGAAACAUGAGGAUCACCCAUGUAAGAUAUACACAGGAUAUGCGAAAAGAAACAAAGAAGCAGAAGGGUGGAAAA [75%, Ex sub1, 11] (Eterna round: R96, puzzle: Same State 1) | 16.6 | 22.7 | 43.5 | – | – | –
25 | AGGAGUAUCUGACAUGAGGAUCACCCAUGUUCCAUUCUACGAUAGGAUAUCGAAAUACAAAGACGCGAGAAGGAUCAGAACCUA [Eternabot solution 48] (Eterna round: R96, puzzle: Same State NG 3) | 23.2 | 16.5 | 26.8 | – | – | –
26 | AGGCAAGCUUUUUGCUGGUAUGAAGGAGAACAUGAGGAUCACCCAUGUAUUAGAGGUGUAGAGGAUUUGAGAAAGAA [JR_SHM208A_Sub003] (puzzle: Sensor for hsa-mir-208a) | – | – | – | 96.8 | 91.8 | 134
27 | AGGCCAUCGGGAGGAUAUGGCACCUUAUUGGUGCCAGAAGGUCCAACAUGAGGAUCACCCAUGUGGGAGUGGUCUAAUGACCAC [Fiskers NG1(ss) - 4] (Eterna round: R96, puzzle: Same State NG 1) | 64.3 | 58.1 | 64 | – | – | –
28 | AGGCUCAGACGAGGAUAUAUGUGGUCACAUGAGGAUCACCCAUGUCUCGAGCUUCGGCUCGAGGCAUAGAAGGCGUCUGAGCCA [SSNG2/5-A1] (Eterna round: R96, puzzle: Same State NG 2) | 662 | 16.4 | 184 | – | – | –
29 | AGGCUCAGACUAGGAUAUGAUCAUGGCGCUUCGGCGCAUACAUGAGGAUCACCCAUGUAAAGUGAUCAGAAGGAGUCUGAGCCA [SSNG2/7-C1] (Eterna round: R96, puzzle: Same State NG 2) | 9.82 | 9.08 | 13.6 | – | – | –
30 | AGGGCCGCGGCACAGGAUAUGCACAGGUUCACAUGAGGAUCACCCAUGUGCUCUAGAUAACUUAAGCAGAAGGGUGUCAUGGUAA [Biarrace] (puzzle: Same State 2) | – | – | – | 11.2 | 12 | 14.1
